Experimental data reported in the supplement of paper PMC9112550, “Optimization of the antimicrobial peptide Bac7 by deep mutational scanning” (BMC Biology, 2022).

Tested on: Escherichia coli TOP10
Assay: shrunken log2 fold change of peptide-encoding DNA abundance (4.5 h post-induction vs induction); higher = less antimicrobial activity (less host growth inhibition)
Settings: time post-induction: 4.5 h; library: site-saturation at positions 5, 18, 19, 20
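Further: peptides expressed intracellularly from a pBAD plasmid library in pooled LB shake-flask culture, induced with 0.3% L-arabinose, DNA abundance read by NGS, three biological replicates, DESeq2 with apeglm shrinkage.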

Row | Sequence | shrunken log2 fold change
1 | RRIRWRPPRLPRPRPRPPLNPRP | 0.188
2 | RRIRARPPRLPRPRPRPHMMPRP | -0.12
3 | RRIRVRPPRLPRPRPRPSSYPRP | -0.139
4 | RRIRCRPPRLPRPRPRPQQSPRP | -0.0144
5 | RRIRKRPPRLPRPRPRPEDAPRP | 0.054
6 | RRIRMRPPRLPRPRPRPWEQPRP | 0.0405
7 | RRIRFRPPRLPRPRPRPWHNPRP | 0.0654
8 | RRIRWRPPRLPRPRPRPENAPRP | 0.275
9 | RRIRYRPPRLPRPRPRPYVMPRP | -1.04
10 | RRIRSRPPRLPRPRPRPEKQPRP | 0.1
11 | RRIRHRPPRLPRPRPRPAPIPRP | 0.31
12 | RRIRWRPPRLPRPRPRPCWTPRP | 0.0677
13 | RRIRTRPPRLPRPRPRPLFRPRP | -0.353
14 | RRIRFRPPRLPRPRPRPVKFPRP | -0.0322
15 | RRIRCRPPRLPRPRPRPELQPRP | 0.251
16 | RRIRPRPPRLPRPRPRPIWDPRP | -0.0628
17 | RRIRERPPRLPRPRPRPTNQPRP | -0.414
18 | RRIRLRPPRLPRPRPRPTAQPRP | 0.104
19 | RRIRHRPPRLPRPRPRPANRPRP | -0.129
20 | RRIRERPPRLPRPRPRPFHKPRP | -0.355
21 | RRIRARPPRLPRPRPRPGHVPRP | 0.0499
22 | RRIRRRPPRLPRPRPRPMWDPRP | 0.164
23 | RRIRERPPRLPRPRPRPQEDPRP | -0.0088
24 | RRIRWRPPRLPRPRPRPHCVPRP | -0.169
25 | RRIRGRPPRLPRPRPRPWQHPRP | -0.0318

Row | Sequence | shrunken log2 fold change
26 | RRIRMRPPRLPRPRPRPKQFPRP | 0.255
27 | RRIRPRPPRLPRPRPRPEVKPRP | -0.00169
28 | RRIRVRPPRLPRPRPRPSQQPRP | -0.116
29 | RRIRIRPPRLPRPRPRPFKHPRP | -1.2
30 | RRIRWRPPRLPRPRPRPPPPPRP | 0.958
31 | RRIRPRPPRLPRPRPRPVWGPRP | 0.0591
32 | RRIRMRPPRLPRPRPRPLQRPRP | 0.0735
33 | RRIRLRPPRLPRPRPRPYSAPRP | -0.693
34 | RRIRMRPPRLPRPRPRPEPGPRP | 2.73
35 | RRIRIRPPRLPRPRPRPATMPRP | -0.0977
36 | RRIRQRPPRLPRPRPRPPIIPRP | -0.0647
37 | RRIRLRPPRLPRPRPRPGGLPRP | 0.097
38 | RRIRTRPPRLPRPRPRPPQPPRP | 0.154
39 | RRIRRRPPRLPRPRPRPHHDPRP | -0.298
40 | RRIRARPPRLPRPRPRPKLDPRP | 0.655
41 | RRIRCRPPRLPRPRPRPQIDPRP | -0.0788
42 | RRIRERPPRLPRPRPRPWYNPRP | -0.174
43 | RRIRKRPPRLPRPRPRPEKPPRP | 0.0899
44 | RRIRPRPPRLPRPRPRPVPHPRP | 0.0546
45 | RRIRKRPPRLPRPRPRPVNVPRP | 0.0147
46 | RRIRKRPPRLPRPRPRPRRAPRP | 0.9
47 | RRIRERPPRLPRPRPRPYVIPRP | -0.172
48 | RRIRKRPPRLPRPRPRPRPGPRP | 0.721
49 | RRIRSRPPRLPRPRPRPRPKPRP | 0.518
50 | RRIRPRPPRLPRPRPRPWMYPRP | -0.691

Row | Sequence | shrunken log2 fold change
51 | RRIRERPPRLPRPRPRPHIEPRP | 0.0737
52 | RRIRFRPPRLPRPRPRPFSQPRP | -0.452
53 | RRIRARPPRLPRPRPRPGTHPRP | 0.173
54 | RRIRTRPPRLPRPRPRPQCNPRP | -0.0399
55 | RRIRWRPPRLPRPRPRPLRSPRP | 0.884
56 | RRIRKRPPRLPRPRPRPQTCPRP | -0.132
57 | RRIRKRPPRLPRPRPRPLMCPRP | -0.122
58 | RRIRKRPPRLPRPRPRPCYAPRP | 0.083
59 | RRIRGRPPRLPRPRPRPIEKPRP | 0.942
60 | RRIRFRPPRLPRPRPRPEAPPRP | 0.529
61 | RRIRCRPPRLPRPRPRPGTWPRP | 0.011
62 | RRIRVRPPRLPRPRPRPYCRPRP | -0.213
63 | RRIRTRPPRLPRPRPRPLWVPRP | 0.0735
64 | RRIRPRPPRLPRPRPRPPDDPRP | 0.142
65 | RRIRYRPPRLPRPRPRPTCGPRP | 0.0163
66 | RRIRTRPPRLPRPRPRPGPEPRP | 0.0888
67 | RRIRTRPPRLPRPRPRPVTVPRP | 0.0698
68 | RRIRLRPPRLPRPRPRPVCDPRP | -0.0188
69 | RRIRQRPPRLPRPRPRPTMKPRP | -0.314
70 | RRIRYRPPRLPRPRPRPQYYPRP | -1.52
71 | RRIRGRPPRLPRPRPRPGGYPRP | 0.505
72 | RRIRIRPPRLPRPRPRPRDPPRP | 1.94
73 | RRIRRRPPRLPRPRPRPELSPRP | 0.0649
74 | RRIRVRPPRLPRPRPRPLLRPRP | 0.0947
75 | RRIRFRPPRLPRPRPRPEPFPRP | 0.108

Row | Sequence | shrunken log2 fold change
76 | RRIRWRPPRLPRPRPRPNKVPRP | -0.129
77 | RRIRNRPPRLPRPRPRPNGYPRP | -0.0975
78 | RRIRYRPPRLPRPRPRPPWWPRP | 0.605
79 | RRIRLRPPRLPRPRPRPYYWPRP | -0.172
80 | RRIRYRPPRLPRPRPRPNDRPRP | -0.0645
81 | RRIRVRPPRLPRPRPRPENVPRP | -0.0136
82 | RRIRKRPPRLPRPRPRPLMGPRP | 0.818
83 | RRIRNRPPRLPRPRPRPQKVPRP | 0.007
84 | RRIRERPPRLPRPRPRPFDMPRP | -0.0448
85 | RRIRNRPPRLPRPRPRPYGAPRP | -0.397
86 | RRIRFRPPRLPRPRPRPRGRPRP | 0.454
87 | RRIRGRPPRLPRPRPRPPEWPRP | 1.13
88 | RRIRCRPPRLPRPRPRPLDKPRP | -0.328
89 | RRIRERPPRLPRPRPRPLHTPRP | -0.674
90 | RRIRTRPPRLPRPRPRPRKVPRP | -0.295
91 | RRIRTRPPRLPRPRPRPRPDPRP | 1.44
92 | RRIRCRPPRLPRPRPRPETNPRP | 0.222
93 | RRIRKRPPRLPRPRPRPLKMPRP | 0.0436
94 | RRIRLRPPRLPRPRPRPLLNPRP | -0.468
95 | RRIRRRPPRLPRPRPRPIHFPRP | -0.174
96 | RRIRPRPPRLPRPRPRPGIQPRP | -0.214
97 | RRIRMRPPRLPRPRPRPQWIPRP | -0.00285
98 | RRIRHRPPRLPRPRPRPQSHPRP | -0.167
99 | RRIRGRPPRLPRPRPRPQFGPRP | 0.0436
100 | RRIRGRPPRLPRPRPRPPEPPRP | 0.397

Row | Sequence | shrunken log2 fold change
101 | RRIRWRPPRLPRPRPRPRRSPRP | 0.492
102 | RRIRARPPRLPRPRPRPGRRPRP | 0.339
103 | RRIRGRPPRLPRPRPRPQMNPRP | 0.355
104 | RRIRGRPPRLPRPRPRPMGAPRP | 0.821
105 | RRIRFRPPRLPRPRPRPNQSPRP | -0.32
106 | RRIRKRPPRLPRPRPRPMLMPRP | 0.322
107 | RRIRSRPPRLPRPRPRPLCFPRP | -0.0528
108 | RRIRQRPPRLPRPRPRPDYFPRP | -0.198
109 | RRIRCRPPRLPRPRPRPFCYPRP | -0.733
110 | RRIRYRPPRLPRPRPRPMKVPRP | 0.0135
111 | RRIRRRPPRLPRPRPRPLHFPRP | 0.397
112 | RRIRPRPPRLPRPRPRPQNHPRP | 0.181
113 | RRIRSRPPRLPRPRPRPIREPRP | -0.0902
114 | RRIRERPPRLPRPRPRPYEVPRP | -0.448
115 | RRIRWRPPRLPRPRPRPGEGPRP | 0.154
116 | RRIRYRPPRLPRPRPRPPSNPRP | -0.266
117 | RRIRNRPPRLPRPRPRPWDWPRP | 0.0265
118 | RRIRNRPPRLPRPRPRPEYRPRP | -0.159
119 | RRIRVRPPRLPRPRPRPHRFPRP | 0.0259
120 | RRIRSRPPRLPRPRPRPGHMPRP | 0.0805
121 | RRIRGRPPRLPRPRPRPSIPPRP | -0.137
122 | RRIRGRPPRLPRPRPRPLKKPRP | 0.195
123 | RRIRFRPPRLPRPRPRPWYIPRP | -0.623
124 | RRIRMRPPRLPRPRPRPPLKPRP | 1.23
125 | RRIRFRPPRLPRPRPRPKFGPRP | 0.039
